# Experimental data published in the RNAGym collection of RNA variant scans (doi:10.1021/acssynbio.7b00057).
# B1: Pistol ribozyme (parent)
# chain: GGGUCGUUGUUCCAUAAUCGCGUGGAUAUGGCACGCAAGUUUCUACCGGGCACCGUAAAUGUCCGACUGGAGCCGUUCGGGCGGCUAUAAACAGACCUCAGGCCCGAAGCGUGGCGGCACCUGCCGCCGGUGGUAAAAAAGAUCGGAAGAGCACACGUCU
# Variants of: B1
# Assay: aptazyme ON/OFF ratio, guanine; higher = stronger switching; co-transcriptional cleavage with and without guanine
row,Variant,aptazyme ON/OFF ratio
1,U7A U8A G9U U10G U11C C12G C13G,1.14
2,U7A U8A G9U U10G U11C C12G C13A,1.09
3,U7A U8A G9U U10G U11C C12G C13U,1.24
4,U7A U8A U10A C12U C13U,1.2
5,U7A U8A U10A C12U C13A,1.28
6,U7A U8A U10A C12U C13G,1.1
7,U7A U8A U10A U11A C12U,1.2
8,U7A U8A U10A U11A C12G,1.19
9,U7A U8A U10A U11A C12A,1.18
10,U7A U8A G9U U11C C12G C13U,1.29
11,U7A U8A G9U U11C C12G C13G,1.04
12,U7A U8A G9U U11C C12G C13A,1.18
13,U7A U8A G9U U10C U11A C12A,1.22
14,U7A U8A G9U U10C U11A C12G,1.18
15,U7A U8A G9U U10C U11A C12U,1.23
16,U7A U8A U10C U11C C12A C13G,1.09
17,U7A U8A U10C U11C C12A C13U,1.12
18,U7A U8A U10C U11C C12A C13A,1.06
19,U7A U8A G9U U10C U11G C12A,1.04
20,U7A U8A G9U U10C U11G C12U,1.22
21,U7A U8A G9U U10C U11G C12G,1.15
22,U7A U8A U10A U11A C12A C13G,1.19
23,U7A U8A U10A U11A C12A C13A,1.12
24,U7A U8A U10A U11A C12A C13U,1.25

row,Variant,aptazyme ON/OFF ratio
1,U7A U8A G9U U11A C12A C13A,1.04
2,U7A U8A G9U U11A C12A C13U,1.22
3,U7A U8A G9U U11A C12A C13G,1.12
4,U7A U8A U10C C12A C13A,1.13
5,U7A U8A U10C C12A C13G,1.08
6,U7A U8A U10C C12A C13U,1.18
7,U7A U8A G9U U10C U11G C12G C13A,1.15
8,U7A U8A G9U U10C U11G C12G C13U,1.12
9,U7A U8A G9U U10C U11G C12G C13G,1.21
10,U7A U8A G9U U10G U11A C12G C13G,1.4
11,U7A U8A G9U U10G U11A C12G C13A,1.18
12,U7A U8A G9U U10G U11A C12G C13U,1.51
13,U7A U8A U10C U11G C12G,1.34
14,U7A U8A U10C U11G C12A,1.09
15,U7A U8A U10C U11G C12U,1.45
16,U7A U8A U10G U11A C12U C13G,1.27
17,U7A U8A U10G U11A C12U C13A,1.35
18,U7A U8A U10G U11A C12U C13U,1.11
19,U7A U8A G9U U11A C12U C13A,1.04
20,U7A U8A G9U U11A C12U C13U,1.28
21,U7A U8A G9U U11A C12U C13G,1.23
22,U7A U8A U10C U11A C12G,1.19
23,U7A U8A U10C U11A C12U,1.14
24,U7A U8A U10C U11A C12A,1.24

row,Variant,aptazyme ON/OFF ratio
1,U7A U8A G9U U10C U11A C12G C13G,1.17
2,U7A U8A G9U U10C U11A C12G C13A,1.25
3,U7A U8A G9U U10C U11A C12G C13U,1.16
4,U7A U8A G9U U10G C12A C13A,1.38
5,U7A U8A G9U U10G C12A C13G,1.09
6,U7A U8A G9U U10G C12A C13U,1.19
7,U7A U8A G9U U10C U11A,1.29
8,U7A U8A G9U U10C U11C,1.04
9,U7A U8A G9U U10C U11G,1.33
10,U7A U8A G9U U10C U11A C12U C13U,1.22
11,U7A U8A G9U U10C U11A C12U C13A,1.14
12,U7A U8A G9U U10C U11A C12U C13G,1.18
13,U7A U8A G9U U10G U11A C12A,1.29
14,U7A U8A G9U U10G U11A C12U,1.07
15,U7A U8A G9U U10G U11A C12G,1.32
16,U7A U8A G9U U10C U11C C12A C13G,1.12
17,U7A U8A G9U U10C U11C C12A C13U,1.05
18,U7A U8A G9U U10C U11C C12A C13A,1.04
19,U7A U8A G9U U10G U11C,1.05
20,U7A U8A G9U U10G U11G,1.09
21,U7A U8A G9U U10G U11A,1.03
22,U7A U8A U10G U11C C13A,1.17
23,U7A U8A U10A C12G C13U,1.23
24,U7A U8A U10A C12G C13A,1.14

row,Variant,aptazyme ON/OFF ratio
1,U7A U8A U10A C12G C13G,1.17
2,U7A U8A U10A U11C C12U,1.03
3,U7A U8A U10A U11C C12G,1.1
4,U7A U8A U10A U11C C12A,1.04
5,U7A U8A U10C C12U C13U,1.14
6,U7A U8A U10C C12U C13A,1.05
7,U7A U8A U10C C12U C13G,1.07
8,U7A U8A U10C U11G C12U C13G,1.1
9,U7A U8A U10C U11G C12U C13U,1.3
10,U7A U8A U10C U11G C12U C13A,1.23
11,U7A U8A U10G U11A C13U,1.15
12,U7A U8A U10G U11A C13A,1.19
13,U7A U8A U10G U11A C13G,1.16
14,U7A U8A G9U U10G U11G C12A C13U,1.17
15,U7A U8A G9U U10G U11G C12A C13A,1.24
16,U7A U8A G9U U10G U11G C12A C13G,1.2
17,U7A U8A G9U U10G C13G,1.21
18,U7A U8A G9U U10G C13U,1.36
19,U7A U8A G9U U10G C13A,1.24
20,U7A U8A G9U U10G U11G C12A,1.13
21,U7A U8A G9U U10G U11G C12U,1.37
22,U7A U8A G9U U10G U11G C12G,1.41
23,U7A U8A G9U U10C U11G C12U C13A,1.15
24,U7A U8A G9U U10C U11G C12U C13G,1.07

row,Variant,aptazyme ON/OFF ratio
1,U7A U8A G9U U10C U11G C12U C13U,1.22
2,U7A U8A U10A U11C C12U C13A,1.11
3,U7A U8A U10A U11C C12U C13G,1.1
4,U7A U8A U10A U11C C12U C13U,1.04
5,U7A U8A U10C U11C C12U C13A,1.04
6,U7A U8A U10C U11C C12U C13G,1.15
7,U7A U8A U10C U11C C12U C13U,1.05
8,U7A U8A U10G U11C C12A C13U,1.34
9,U7A U8A U10G U11C C12A C13G,1.09
10,U7A U8A U10G U11C C12A C13A,1.28
11,U7A U8A U10C C12G C13A,1.17
12,U7A U8A U10C C12G C13G,1.19
13,U7A U8A U10C C12G C13U,1.26
14,U7A U8A G9U U11G C12A C13U,1.22
15,U7A U8A G9U U11G C12A C13G,1.27
16,U7A U8A G9U U11G C12A C13A,1.29
17,U7A U8A G9U U10G C12U,1.33
18,U7A U8A G9U U10G C12G,1.16
19,U7A U8A G9U U10G C12A,1.22
20,U7A U8A G9U U10G,1.61
21,U7A U8A U10G U11C C12G C13U,1.39
22,U7A U8A U10G U11C C12G C13A,1.23
23,U7A U8A U10G U11C C12G C13G,1.11
24,U7A U8A U10C U11G C12G C13A,1.17

row,Variant,aptazyme ON/OFF ratio
1,U7A U8A U10C U11G C12G C13G,1.18
2,U7A U8A U10C U11G C12G C13U,1.19
3,U7A U8A U10G U11A C12A C13A,1.64
4,U7A U8A U10G U11A C12A C13U,1.7
5,U7A U8A U10G U11A C12A C13G,1.1
6,U7A U8A U10G U11A C12G C13G,1.16
7,U7A U8A U10G U11A C12G C13U,1.51
8,U7A U8A U10G U11A C12G C13A,1.2
9,U7A U8A U10C U11G C12A C13G,1.16
10,U7A U8A U10C U11G C12A C13U,1.12
11,U7A U8A U10C U11G C12A C13A,1.12
12,U7A U8A G9U U11C,1.09
13,U7A U8A G9U U11G,1.36
14,U7A U8A G9U U11A,0.956
15,U7A U8A U10C U11A C12G C13A,1.12
16,U7A U8A U10C U11A C12G C13G,1.24
17,U7A U8A U10C U11A C12G C13U,1.12
18,U7A U8A G9U U11A C12G,1.33
19,U7A U8A G9U U11A C12A,1.25
20,U7A U8A G9U U11A C12U,1.15
21,U7A U8A G9U U10G U11C C12A C13U,1.21
22,U7A U8A G9U U10G U11C C12A C13G,1.15
23,U7A U8A G9U U10G U11C C12A C13A,1.29
24,U7A U8A U10C U11C C12G C13A,1.1

row,Variant,aptazyme ON/OFF ratio
1,U7A U8A U10C U11C C12G C13U,1.08
2,U7A U8A U10C U11C C12G C13G,1.21
3,U7A U8A G9U U11C C12G,1.19
4,U7A U8A G9U U11C C12U,1.13
5,U7A U8A G9U U11C C12A,1.17
6,U7A U8A U10A C12A,1.33
7,U7A U8A U10A C12G,1.26
8,U7A U8A U10A C12U,1.11
9,U7A U8A G9U U10G U11G C13G,1.3
10,U7A U8A G9U U10G U11G C13U,1.17
11,U7A U8A G9U U10G U11G C13A,1.24
12,U7A U8A G9U U11G C12G C13G,1.22
13,U7A U8A G9U U11G C12G C13A,1.22
14,U7A U8A G9U U11G C12G C13U,1.1
15,U7A U8A U10A U11C C12G C13A,1.06
16,U7A U8A U10A U11C C12G C13U,1.15
17,U7A U8A U10A U11C C12G C13G,1.24
18,U7A U8A U10C U11C C12A,1.17
19,U7A U8A U10C U11C C12U,1.07
20,U7A U8A U10C U11C C12G,1.2
21,U7A U8A U10C U11C C13U,1.02
22,U7A U8A U10C U11C C13A,1.01
23,U7A U8A U10C U11C C13G,1.07
